Assay [1] deals with B7 molecules on WEHI 231 cells (B7-1 and B7-2). As to the kind of experiment: flow cytometry, titered staining of WEHI 231 cells. For orientation: In flow cytometry, cells or beads pass a laser one at a time.
For assay [2] the target is unchanged. Description: flow cytometry, titered staining of WEHI 231 cells; estimate from detectable concentrations.

mCTLA4-mIgG2am, sequence (P09793 36-161): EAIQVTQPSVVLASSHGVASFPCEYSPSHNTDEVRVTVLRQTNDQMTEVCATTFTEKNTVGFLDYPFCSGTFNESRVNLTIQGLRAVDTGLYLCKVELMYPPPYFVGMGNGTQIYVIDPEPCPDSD

In turn, “mCTLA4-mIgG2am (from UniProt P09793 36-161) (Fc fusion)” returned a concentration at which staining was clearly detectable in assay [1] of 8 ng/mL. The fold greater binding affinity than mICOS-mIgG2am binding to GL50 on WEHI cells in assay [2] is > 100 fold.

The values are drawn from patent US20040054158A1.
